Reference: the supplement of paper PMC10724198
± gives the standard deviation of the averaged measurements.

Test system: Saccharomyces cerevisiae
Experiment: protein stability index of tFT-peptide fusion (C-terminal peptide) (PSI (0-1 scale)); higher = more stable (slower turnover)
Details: genetic background: wild type; temperature: 30 C
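Also: PSI is a weighted mean of sequencing reads over stability bins, variants kept only with over 10 reads, mCherry proximal and sfGFP distal, peptide attached via GGGS linker.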

Sequence	protein stability index
RVCYVYIGVTMH	0.634 ± 0.19
RVDRVFGGFGGS	0.724 ± 0.14
RVFGSFLSGEQF	0.70035 ± 0.00058
RVFTGLCRPFGV	0.736 ± 0.012
RVGERGEGGGVV	0.638 ± 0.014
RVGYVPNFFCVL	0.6254 ± 0.0038
RVIIWDRRFLAG	0.6793 ± 0.0026
RVIVRGREIEIV	0.6782 ± 0.0018
RVLDNYLTDYCL	0.675 ± 0.061
RVLPSDSPVAPA	0.667 ± 0.044
RVLRKIWEWKKG	0.685 ± 0.051
RVLRREKPVVHC	0.603 ± 0.008
RVLVRLFGRGKA	0.688 ± 0.025
RVLVSPPPPLPS	0.688 ± 0.026
RVMELEGRSKLK	0.633 ± 0.026
RVQAVTNKVAAR	0.692 ± 0.012
RVRCPVVSGGRG	0.707 ± 0.099
RVRSKNIKIRWK	0.798 ± 0.029
RVTRPSARLLSP	0.639 ± 0.084
RVVDAPPSGCRS	0.688 ± 0.037
RVVGCPPLLLPP	0.639 ± 0.035
RVWRLIGFHVSS	0.713 ± 0.012
RVYFGRPRSIVL	0.656 ± 0.025
RVYKCNMKNNSK	0.661 ± 0.018
RWGANSVSLEGE	0.737 ± 0.02
RWGCVGWKVVGG	0.709 ± 0.1

Sequence	protein stability index
RWGGGQRLSRGT	0.7082 ± 0.0037
RWGGWFCRLPIG	0.698 ± 0.05
RYGARAGPPVNL	0.68 ± 0.054
RYGHSVLQSGIS	0.73 ± 0.042
RYLSVPGLEIPK	0.677 ± 0.068
RYRPSPPPPPPH	0.762 ± 0.054
RYVSCLSIPCLL	0.6373 ± 0.0018
RYYNDKKEKNIL	0.706 ± 0.0085
SACRVGKSILDT	0.728 ± 0.057
SACVEQVHLRWF	0.642 ± 0.092
SAFFSAWVLVLD	0.555 ± 0.024
SAGAPRMPARGG	0.691 ± 0.071
SAKQTYFKRVAQ	0.66 ± 0.042
SALLLPRARPPD	0.634 ± 0.055
SALRALRPGSLP	0.806 ± 0.11
SALSKYFLSVRL	0.633 ± 0.012
SAPFSPSLTHHP	0.742 ± 0.14
SAPLVHASSSPQ	0.722 ± 0.042
SAPPPAPPPPPR	0.702 ± 0.027
SAQHPSTRHRPP	0.6 ± 0.035
SARLCPPRGGFR	0.748 ± 0.018
SARLTPDLPAPS	0.642 ± 0.017
SARRAALGVWVV	0.636 ± 0.026
SASPHSPSPPSR	0.627 ± 0.079
SASRPRRWGLAR	0.609 ± 0.007
SASVACFCGLVV	0.7 ± 0.023

Sequence	protein stability index
SATHLLADPAPG	0.661 ± 0.088
SATPSSLPLPPS	0.739 ± 0.029
SAVGRTYGVIII	0.673 ± 0.029
SAVRLGANLCRT	0.6979 ± 0.0057
SAVVPYLGWSPV	0.708 ± 0.015
SCAPRSPCTPPP	0.718 ± 0.015
SCDIFIYTHLVS	0.612 ± 0.031
SCFGVSRSAHFL	0.728 ± 0.027
SCFLAFSFLCLF	0.5 ± 0.0096
SCFLISIPLGFV	0.5678 ± 0.0055
SCGMDLALGYAV	0.689 ± 0.061
SCPPLKYNNKTY	0.66 ± 0.015
SCPTPRFPQCSS	0.633 ± 0.034
SCRLYIKVDKSA	0.6464 ± 0.0034
SCVDHLGCHSSG	0.739 ± 0.029
SCYLLDFGCIWV	0.646 ± 0.0083
SDFLTYAEARLD	0.72 ± 0.12
SDKDIYQRLSYE	0.643 ± 0.036
SDSAPSPPAFLP	0.6569 ± 0.0025
SDVKFGFCGVAS	0.655 ± 0.028
SEAFDSSARRAL	0.541 ± 0.043
SEEGMGRCSDEE	0.731 ± 0.028
SEFKLVVGSRSD	0.715 ± 0.032
SEGKQYITGRWK	0.702 ± 0.084
SELRFALCPAFL	0.666 ± 0.019
SERPVPTSISLR	0.682 ± 0.0069

Sequence	protein stability index
SERRVKKIEEQI	0.77 ± 0.084
SERYFFFQCGPH	0.6802 ± 0.0033
SETGSGGLFSLP	0.693 ± 0.018
SEVIIAISNKNH	0.5275 ± 0.0019
SFACLLGRGWVD	0.719 ± 0.06
SFADFVFMDHCA	0.696 ± 0.062
SFAKHRNASMGR	0.691 ± 0.04
SFERPAQAHALA	0.698 ± 0.012
SFGSPLFFFPFL	0.736 ± 0.036
SFIGEDHQCVFY	0.723 ± 0.013
SFILRRISSAIS	0.645 ± 0.014
SFISPFFCTRPV	0.638 ± 0.012
SFLFWFFASGWL	0.56 ± 0.047
SFLHLLCSFVLL	0.51 ± 0.039
SFMPFVLPLSSP	0.71 ± 0.023
SFPGVRHSTSDS	0.676 ± 0.017
SFPYPHRDLVTP	0.7114 ± 0.0016
SFSLAPSPPLLP	0.721 ± 0.042
SFSSLVLSSCFW	0.706 ± 0.026
SGDSVAVGVTGT	0.689 ± 0.056
SGDVGGGHWVGG	0.729 ± 0.013
SGFLPPRFLSPS	0.6895 ± 0.0012
SGFPSCFRPSFY	0.702 ± 0.021
SGFRALWGLFAL	0.683 ± 0.014
SGFYQNTCSSLV	0.756 ± 0.12
SGGAGGSCMRYV	0.704 ± 0.022

Sequence	protein stability index
SGGGGGWQEEAG	0.662 ± 0.027
SGGIPGSPNVRL	0.657 ± 0.01
SGGRLVVCEGPG	0.65 ± 0.087
SGGRRRAGKGAT	0.69 ± 0.049
SGGVLSNGRLAA	0.684 ± 0.052
SGHRLTYEFFPT	0.741 ± 0.074
SGLFFRWCRLSW	0.638 ± 0.031
SGLFGDAVPCCV	0.632 ± 0.03
SGNYRGGLTVFS	0.711 ± 0.023
SGPGPGAVGATC	0.702 ± 0.057
SGPTFRWAGVLC	0.593 ± 0.014
SGRGVEVGGEGE	0.752 ± 0.053
SGRIHLLHSPWV	0.712 ± 0.052
SGRMAIYVFGVV	0.579 ± 0.01
SGSMHWTDPPGS	0.6747 ± 0.0051
SGSVLHEFILVV	0.543 ± 0.028
SGTLYELNAVVV	0.644 ± 0.016
SGTPTFTPSYPS	0.717 ± 0.026
SGTVRRQCGNPD	0.69752 ± 0.00027
SGVALFFFPPLL	0.71 ± 0.039
SGVGLAETAGDD	0.68 ± 0.027
SGVGSRDGVRGA	0.684 ± 0.048
SGYCCDGCKGSY	0.6461 ± 0.0028
SHAATKGSLFNV	0.631 ± 0.0074
SHEARMVCGSSV	0.63331 ± 0.00024
SHLLPPPLTPAS	0.673 ± 0.031

Sequence	protein stability index
SHLMETPACSAP	0.915 ± 0.082
SHPLTLPSLLPP	0.717 ± 0.045
SHRRLPPSRFYR	0.7 ± 0.081
SHSTNNHKLTPR	0.677 ± 0.082
SHSTPAFPLPPP	0.638 ± 0.068
SHVDRVVFWYLL	0.529 ± 0.033
SHVLPHPGLSPP	0.655 ± 0.061
SHVMLCLHFLFR	0.498 ± 0.018
SHVVDAPYRSEG	0.66601 ± 0.00013
SINLLFHSFFFL	0.608 ± 0.047
SIPAPLAPLWGL	0.627 ± 0.055
SIPVPFSFPLFI	0.598 ± 0.0065
SIQVFDTYIITD	0.697 ± 0.068
SIRGLRTLKFLG	0.6739 ± 0.0049
SIRNNMKRVRKN	0.631 ± 0.022
SISFPPPPRSLT	0.719 ± 0.08
SIWLLSGGQCFL	0.684 ± 0.027
SKERLKSEKMKK	0.745 ± 0.059
SKGQLRLNMCIL	0.662 ± 0.046
SKKKKNLQIPKK	0.734 ± 0.12
SKKTSRSKVHTS	0.685 ± 0.069
SLALSSPLPPPP	0.735 ± 0.042
SLALVATWCGYR	0.688 ± 0.052
SLASWLCVFSWD	0.673 ± 0.027
SLCTFSFLRFGF	0.738 ± 0.015
SLCTSVPEPPFS	0.687 ± 0.0072

Sequence	protein stability index
SLDLSQPMPWYH	0.711 ± 0.051
SLDQGSSSLFIM	0.731 ± 0.082
SLEFISIAFLDL	0.685 ± 0.042
SLEQRPLQRPPS	0.6941 ± 0.0063
SLFALPLPPPAQ	0.695 ± 0.025
SLFFPLPLSSLF	0.736 ± 0.07
SLFHTSLAYSFF	0.7143 ± 0.0066
SLFLSRRSLYRV	0.738 ± 0.034
SLFLVLSLAQLL	0.579 ± 0.066
SLFPAGWAGFSD	0.73 ± 0.011
SLFRGHLLPPRP	0.688 ± 0.036
SLIPLLPPRSLS	0.594 ± 0.1
SLKIHIKQIEKK	0.766 ± 0.022
SLLILMYHIAPF	0.53 ± 0.03
SLLLPPRPPCPP	0.737 ± 0.024
SLLLRVLCGRLS	0.5104 ± 0.0037
SLLPHAHAPSPL	0.673 ± 0.014
SLLPHSPLLPPP	0.694 ± 0.0031
SLLPQSAGRRPH	0.666 ± 0.063
SLLPRLTPHSPI	0.75 ± 0.051
SLLSTPPPLASP	0.669 ± 0.039
SLPALPPLGLFS	0.71 ± 0.017
SLPCPISPPSFL	0.697 ± 0.018
SLPLHFISGFYV	0.6586 ± 0.0043
SLPLPPCLSPLQ	0.723 ± 0.054
SLPLPVFSFPCS	0.653 ± 0.00069

Sequence	protein stability index
SLPLSSALFPPL	0.72 ± 0.076
SLPPALPLPLSH	0.64 ± 0.06
SLPPPPCLPPLT	0.675 ± 0.044
SLPPSFPPPFLF	0.7355 ± 0.001
SLRNGESTGLCF	0.743 ± 0.098
SLRPALSFLPLP	0.716 ± 0.054
SLSCDITRFVEY	0.712 ± 0.19
SLSHSPSPPPPT	0.638 ± 0.0084
SLSPWRLPIGGW	0.708 ± 0.033
SLSSAPPIPPTL	0.697 ± 0.011
SLSSRSVSLFKF	0.806 ± 0.13
SLSTAEAHGRRS	0.72 ± 0.082
SLSTLVFSFCVL	0.517 ± 0.03
SLSVRTIFTSRS	0.71 ± 0.071
SLTEAVHWDRIS	0.67 ± 0.032
SLTLAHPGVDLA	0.709 ± 0.021
SLTTPGMSQAYY	0.703 ± 0.034
SLVSTSRALFAQ	0.659 ± 0.019
SLVSWAGLLFWG	0.727 ± 0.058
SLWVLPGPVVLG	0.621 ± 0.039
